Experimental data: the nanobody polyreactivity screen of Harvey et al. (2022)

Assay: yeast display, Sf9 membrane polyspecificity reagent, FACS + sequencing; frameworks hold sequencing errors
Outline: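 In a synthetic yeast display library (Saccharomyces cerevisiae BJ5465), nanobody expression was induced with galactose for 36–48 hours. FACS gates were set low and high (top ~1%) using anti-HA fluorescence for expression and streptavidin fluorescence for binding of the Sf9 membrane reagent. Each polyreactivity label is drawn from the gate of origin.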

Sequence | polyreactivity (PSR sort gate)
QDQLVESGGGLVQAGGSLRLSCAATGFIIGWNTMGWYRPAPRKEREVVAAISSGGGSTYYADSVKGRFTISRDNAKNNVYLQMNSLKPEDTAVFYCNAVSFKHVYHTDTYGVNEFVYWGEGTQVTVSS | high polyreactivity
QVQLVESGGGLVQAGGSLRLSCAASGSIFVNYAKGWYRQAPGKERELVAAITRSGGRTYYADSVKGRFTISRDNAKNTVYLQMNSLKPEDTAVYYCNKRRYPYGWGQGTQVNVSS | high polyreactivity
QVQLVESGGGLVQAGGSLRLSCAASGRILYGYAMGWYRQAPGKERELVASITWSGGSTYADSVKGRFTISRDNAKNTVYLQMNSLKPEDTAVYYCATRRGPKWQWLTYGYWGQGTQVTVSS | low polyreactivity
QVQLVESGGGLVQAGGSLRLSCAASGFTLYRYVMGWYRQAPGKERELVAAITWSGGSTYYADSVKGRFTISRDNAKNTVYLQMNSLKPEDTAVYYCAARLNVRGWGQGTQVTVSS | low polyreactivity
QVQLVESGGGLVQAGGSLRLSCAASGSTFYFYAMGWYRQAPGKEREFVARISNRDGSTYYADSVKGRFTISRDNAKNTVYLQMNSLKPEDTAVYYCAVKQRASHYPYYSWGQGTQVTVSS | high polyreactivity
QFQLVESGGGLVQAGGSLRLSCAASGFIFQEYAMGWYGQAPGKERELVAAITSGGSTNYADSVKGRFTISRDNAKNTVYLQMNSLKPEDTAVYYCNVDSPDYYYDYDYWGHGTQVTVSS | low polyreactivity
QVQLEESGGGLVQAGGSLRLSCAASGRIFGRNARGWYRQAPVKERELVAAISWRGGNTYYADSVKGRFTISRDNAKNTVYLQMKSLKAEDTAFYYCNTVQSRNEMGYWGQGTQVTVSS | high polyreactivity
QVHLVESGGRLVQAGGSLRLRCAASGRTFIANVMGLYRQAPRKETELVAAISTRGGSTYYADSVKGRFTISRDYAKYTVYLHMNRLKPEDTAVDYCAAYYPAQRGFNSWGQGTQVTVSS | high polyreactivity
QVQLVETGGGLVQAGGSLRLSCAASVRTFHGYAMGWYRQAPGKERELVAAITCTGGRTYYADSVKGRFTISRDNAKNTVYLQMNSLKPEDTAVYYCGARPWIKSGYCGQGTQVTVSS | high polyreactivity
QVQLVESGGGLVQAGGSLRLSCAASGFTFTHYAMGWYREAPGKERELVAAISTSVGSKYYADSVKGRFTISRDNAKNTVYVQMNSLKPEDTAVYYFAARRDGWVQWGNYYWGQVTQVTVSS | low polyreactivity
QVQLVESGGGLVQSGGSLRLSCAASGRIFTHYAMGWYRQAPGKERELVAALSRSGGSTYYADSVKGRFTISRDNAKNTVYLQLNSLIPEDTADYYCDADGGRYFYRGTYREMNYWAQGTQVTVSS | high polyreactivity
QVQLVESGGGLVQAGGSLRLSCAASGFTFRIYTMGWYRQAPGKERELVAAIRWSDGTTYYADSVKGRFTISRDNAKNTVYLQMNSLKPEDTAVYYCAAYTYYYYYWGQGTQVTVSS | high polyreactivity
QVQLVESGGGLVQAGGSLRLSCAASGSTFSLYAMGWYRQAPGKERELVARISYTDGSTYYADSVKGRFTISRDNAKNTVYLQMNSLKPEDTAVYYCAADAWYSYTLEDYWGQGTQVTVSS | low polyreactivity
QVQLVESGGGLVQAGGSLRLSCAASGSTIRRNAKGWYRQAPGKERELVAAITRRAVSTYYADSVKGRFTISRDNAKNTVYLQMNSLKPEDTAVYYCAADRASYFTYAYGYWGQGTQVTVSS | high polyreactivity
QVQLVESGGGLVQAGGSLRLSCAASGLTYSNAMGWYRQAPVKERELVAAISWRGGRTYYADSVKGRFTISRDNAKNTVYLQMNSLKPEDTAVYYCAKYAHGHKWYGYWGQGTQVTVSS | low polyreactivity
QVQLVESGGGLVQAGGSLRLSCAASGRIFVVYAMGWYRQAPGKERELVASITWRGGSTYYADSVKGRFTISRDNAKNTVYLQMNSLKPEDTAVYYCAARYARYLLYDYWGQGTQVTVSS | low polyreactivity
QVQLVESGGVLVQAGGSLRLSCAASGSTFVRNAMGWYRQAPGKEWELVAAITGTGDSTYYADSVKGRFTISRDNAKNTVYLQMNSLKPEDTAVYYCAANSDAYRYWYDYWGQGTQVTVSS | low polyreactivity
QVQLVDSGGGLVQAGGSLRLSCAASGSIFLAYAMGWYRQAPGKEREFVAAISFSDGSTYYADSVKGRFTISRDNAKNTVYLQMNSLKPEDTAVYYCNKGASPDDYDFWGQGTQVTVSS | low polyreactivity
QVQLVESGGGLVQAGRSLRLSCAASGRIFFGYAMGWYRQAPGKERELVAVISSGCRTYYADSVKGRFTISRDNAKNTVYLQMNSLKAEDTAVYYCAAIIPPTKQRGYYYVGRSEYDYWGQGSQVTVSS | low polyreactivity
QVQLVESGGGLVQAGGSLRLSCAASGSTFHDYAMGLYRQAPGKERELVAAISNSGGSTYYADSVKGRFTISRDNAKNTVYLQMNSLKPEDTAVYYCAARKYVAGHKYIMNYWGQGTQVTVSS | low polyreactivity
QVQLVESGGGLVQAGGSLSLSCAASGYTFYKYAMGSYIQAPGKERELVAAISSSGGSTYYADSVKGRFTISRDNAKNTVYLQMNSLKPEDTAVNYCAAYVYSNDYDYWGQGTQVTVSS | high polyreactivity

Sequence | polyreactivity (PSR sort gate)
QVQLVESGGGLDQAGRSLRLSCAASGFIFYYNAMGWYRQAPGKQRELVAAISSGGSTNYADSVKGRFTISRDNAKNTVYLQMNSLQPEDTAVYYCAKRPTGGYKYYYTTSKYDYWGQGTQVTVSS | low polyreactivity
QVQLVESGGGLVQAGGSLRLSCAASGRIFTAYYAMGWYRQAPGKERELVASISSSGTSTYADSVKGRFTISRDNAKNTVYLQMNSLKPEDTAVYYCATRKLRTRRYDYGYWGQGTQVNVSS | low polyreactivity
QVQLVESGGGLVQAGGSLRLSCAASGFTFGAYAMGWYRQAPGKERELVASISWSGGSTYYADSVKGRFTISRDNAKNTVYLQLNSLKPEDTAVYYCNKDFVYPDDDGLFDYWGQGTQVTVSS | low polyreactivity
QVQLVESGGGLVQAGGSLRLSCAASGSTFNYNAMGWYRQAPGKERELVATITTSGGSTYYADSVKGRFTISRDNAKNTVYLQMNSLKPEDTAVYYCAARYPWYRTIDRYDYWGQGTQVTVSS | low polyreactivity
QVQLVESGGGLVQAGGSLRLSCAPSGRTFRFYVMGWYRQAPGKERELVAAISRGGGSTYYADSVKGRFTISRDNAKNTVYLQMNSLKPEDTAVYYCAAKPYKTRSSYWGDYYWGQGTQVTVSS | high polyreactivity
QVQLVESGGCLVQAGGRLRLSCAASGFTFNAYSMGWYRQAPGKERELVAAINVSGGITYYADSVKGRFTISRDNAKNTVYLQMNSLKPEDTAVYYCARDIRQYILYGRGDYWGQGTQVTVSS | low polyreactivity
QVQLVESGGGLVQAGGSLRLSCAASGFTFPGNAMGWYRQAPGKERELVAAISRSGAGTYYADSVKGRFTISRDNAKNTDYLQMNRLKPEDTAVYYCNAVYSSWDYHYRYGYWGQGTQVTVSS | high polyreactivity
QLQLVESRGGLVQAGGSLRVSCAASGRISQIYAMGWSRQAPGKERELVARITSTDSTYYADSVKGRFTISRDNAKNTVYLQMNSLKPEDTAVYYCAASWWSPYDYWGQGTQVTVSS | low polyreactivity
QVQLVESGGCLVQAGGSLRLSCAASGSIFWSYSMGWYRQAPGKERELVAAISSGGSTNYADSVKGRFTISRDNAKNTVYLQMNSLKPEDTAVYYCSARFYTTSVRRKRYDYWGQGTQVTVSS | high polyreactivity
QVQLVESGGGLVQAGGSLRLSCAASGSTFSFYAMGWYRQAPGKERELVAAISRSGGSTFYADSVKGRFTISRDNAKNTVYLQMNSLKPEDTAVYYCAAYGGLQSRYYYWGQGTQVTVSS | high polyreactivity
QVQLVESGGGLVQAGGSLRLSCAASGRIFPDYDMGWYRQAPGKERELVASISTRGGSTYADSVKGRFTISRDNAKNTVYLQMNSLKPEDTAVYYCATDGWKQSAYDYWGQGTQVTVSS | low polyreactivity
QVQLVESGGGLVQAGGSLRLSCAASGRTFGYNGMGWYRQAPGKERELVAAINSGGNTNYADSVKGRFTISRDNAKNTVYLQMNSLKPEDTSVYYCAKYGTLYEPVPNEYDYWGQGTQVTVSS | low polyreactivity
QVQHVESGGGLVQAGGSLRLSCAASGSTFRYYTMGWYRQAPGKERELVAAISGSGGITYYADSVKGRFTISRDNAKNTVYLQMNSLKPEDTAVYYCNAGVFYRDDYWGQGTEVTVSS | high polyreactivity
QVQLVESGGGLVQAGGSLRLSCAASGLTFADYAMGWYRQAPVKERELVAAISSSDTSTYYADSVKGRFTISRDNAKNTVYLQMNSLKPEDTAVYYCAADEGYVWPYYGWGFGKYDYWGQGTQVTVSS | low polyreactivity
QVQHVESGGGLVQAGGSLRLSCAASGSIYYLNAMGWYRQGPGKEWELVAAINRGGSTSYADSVKGRFTISRDNAKNTVYLQMNSLKEADTAVYYCAADHGGVQYSVRYDYWGQGTQLTVSS | low polyreactivity
QVQLVESGGGLVHAGGSLRLSCAASGRTFIAYAMGWYRQAPGKERELVADISLRGGSTYYADSVKGRFTISRDNAKNTVYLQMNSLKPEDTAVYYCNTRRLHGWLYGYEYWGQGTQVTVSS | low polyreactivity
QVHLVESGGGLVQAGGSLRLTCAASGSIFPYNAMGWYRQSPGEFVAAISYSSGSTYYADSVQGRFTISRDNAKYTVYLQMNCVIPDVTAVYYCAAGSWYPPSYVWLGRYDYWGQGTQVTVSS | low polyreactivity
QDQLVESGGGLVQAGGSLRLSCAASGGIFYQYAMGWYRQAPGKERELVATITSGGRTSYADSVKGRFTISRDNAKNTFYLQMNSLNPEDTAVYYCAATTGWYGARYGYWGQGTQVTVSS | high polyreactivity
QVQLVESGGGLDQAGCSLRLSCAASGRIFPYMGWYRQAPGKDRELVAAINASGGRTYYADSVKGRFTISRDNAKNTVYLQMNSLKPEDTAVYYCNAVWSSDTYTHPQYDYWGQGTQVTVSS | high polyreactivity
QVQLVESGGGLVQAGGSLRLSCAASGFIFPGNAMGWYRPAPGKERELVAAISNSGSRTYYADSVKGRLTISRDNAKNTVYLQMNSLIPEDTAVYYCNADVHIRGWPYDYWGQGTQVTVSS | low polyreactivity
